Assay results as given in the supplement of paper PMC12764529.
± gives the half width of the 95% confidence interval.

Legend:
[1] = folding stability dG unfold from trypsin proteolysis; higher = more stable
Procedure, shortened: (§1)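 Bayesian fitting of sequencing counts gave K50 for each design. Unfolding free energy followed by setting this against a sequence-predicted unfolded-state K50 and a shared folded-state K50, either per protease or with trypsin and chymotrypsin combined. The designs, under 80 residues and lacking cysteine, were digested in a PA-tagged cDNA display format at 11 threefold-diluted protease concentrations and without protease, and only those with AlphaFold2 dimer inter-PAE above 15 were kept.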

[2] = folding stability dG unfold from chymotrypsin proteolysis; higher = more stable
Procedure, shortened: as §1

[3] = folding stability dG unfold (combined trypsin and chymotrypsin); higher = more stable
Procedure, shortened: as §1

| Sequence | folding stability dG unfold [1] [kcal/mol] | folding stability dG unfold [2] [kcal/mol] | folding stability dG unfold [3] [kcal/mol] |
| --- | --- | --- | --- |
| SAGGSAGGSAGGMKITLTVPSEEEIEALTPPDAKITEIKKIGKDPVKGLPYYEVVLDPSSAGGSAGGSAGGS [r10_256_JUSTAS] | -1.42 ± 0.44 | 0.411 ± 0.033 | 0.0912 ± 0.14 |
| SAKNIAIKVSIWPFDPEDGEPQTFEITYPFPDPEDAIDEIEEFLPPGYRVKIEVFDPDGKPLKEIEIRISAG [r14_234_TrROS] | 1.93 ± 0.1 | 2.28 ± 0.048 | 2.09 ± 0.19 |
| SAGGSAMKITLKPDGTLEIELPDGVKITITRNANGEVTITITYPDGETKTFPAGMTLEQVLAELLASAGGSA [r15_371_TrROS_Hall] | 3.56 ± 0.072 | 3.3 ± 0.053 | 3.42 ± 0.051 |
| SAGNDEEDQKKAEEQQKPPLEIEPIRVMVMVPFPGGDLLISITIPIIKYPDGGIIIPIPIEIIPLEDISAGG [r19_11_TrROS] | 2.06 ± 0.093 | 2.84 ± 0.085 | 2.5 ± 0.1 |
| SAGGGLPASDPDVTATTETFTVTYTEATPEGNPVTTTTTTTVTTYTAPDGAVTTTTTTTSTTVTPASTSAGG [r13_51_JUSTAS] | 1.7 ± 0.062 | 1.77 ± 0.023 | 1.76 ± 0.038 |
| SAGGSAGGSAGVKVLKNPGDSLVTVVTETTVTKTTTDPEGNTTTTPVKVTTTTLLEVPLTSAGGSAGGSAGG [r17_103_JUSTAS] | 0.205 ± 0.033 | 0.215 ± 0.056 | 0.279 ± 0.071 |
| SAGGMTVERVPGSGVYTLTFPDGSTETLEIPPEENAVVYAKEGAGTVTVKLAPPDDPEALAAAAALSSAGGS [r16_623_JUSTAS] | -0.344 ± 0.083 | 0.357 ± 0.069 | 0.15 ± 0.066 |
| SEKIVIEFPNPEEATVELIKSIIKPYLEPGEKVKIKVFSKDGKPLFEKELEFNEVEEVPKEKDYLIVIEKSA [r9_264_TrMRF] | 0.97 ± 0.076 | 1.3 ± 0.1 | 1.14 ± 0.21 |
| SAGGMYLYKINIKNENEEFFLPILAPEEDEEKVEELAKEISIKLGVKPENIKIEKIEKILGPNGIPVSAGGS [r16_650_TrMRF] | 1.74 ± 0.058 | 2.08 ± 0.037 | 1.99 ± 0.1 |
| SAGGSAGGGMTLQITSIIEIKKPPDGPVVKFTVAGPGTTRTVTINLPENEIKPTTPIPLSRVLSSAGGSAGG [r6_585_JUSTAS] | 1.86 ± 0.13 | 0.968 ± 0.48 | 1.57 ± 0.31 |
| SAGGKEVLTVTVEVEIDGVLIRVEAEVTLDEDGNLTVTITRIEIRPLPPPKIDLRDLTDEQRKELGIESAGG [r13_964_TrROS_Hall] | 2.04 ± 0.096 | 2.02 ± 0.086 | 1.93 ± 0.13 |
| SAGGSAGGSASSSPVTVETKTLEVEFKDDEIIVKEKVTTKYPNGKTTVTVTTTTIKVDPNLDSAGGSAGGSA [r18_291_JUSTAS] | 1.21 ± 0.1 | 1.55 ± 0.1 | 1.34 ± 0.12 |
| SAGGSAGGKWIHINPNSYNIKIQDPGSGKEEEIQFDSPEELIDEIKKQFPGVPVEIHPNGWFKISAGGSAGG [r6_288_TrROS] | 0.385 ± 0.022 | 0.563 ± 0.11 | 0.521 ± 0.091 |
| SAGGSAGGSAKMIFVKNEDGTITMFTLNEDGYLTVTTVTLDKKTKKMTVETKTIKLTDPELLSAGGSAGGSA [r18_503_TrROS_Hall] | 1.16 ± 0.027 | 2.46 ± 0.081 | 2.14 ± 0.17 |
| SAGPPGQPVKTIEIMIEFPPGQTMEEARERVEEIADEIQRKFPKIKSIDVDVQKDDDTYYVNANITIPYSAG [r5_446_TrROS] | 0.848 ± 0.048 | 0.372 ± 0.19 | 0.688 ± 0.19 |
| SGPALEILRAASEEEGVPVLAEVVPDADGNPVIPAVVWSPEDIEAGELPGEVKEAPITVDGKTYRVVLFASA [r9_489_TrMRF] | -0.224 ± 0.11 | -0.0942 ± 0.18 | -0.0573 ± 0.086 |

| Sequence | folding stability dG unfold [1] [kcal/mol] | folding stability dG unfold [2] [kcal/mol] | folding stability dG unfold [3] [kcal/mol] |
| --- | --- | --- | --- |
| SAGGSASVKVEETVEFLPGGVVKTTTRTFFPDGTVTTTDTVTALPPVPVYDISSPENLSPALERLASAGGSA [r15_1018_JUSTAS] | 0.543 ± 0.028 | 1.16 ± 0.026 | 0.909 ± 0.052 |
| SMKKILIIVPKEMSEEEVEALVKELLEKLGLPEGAEVEILTEEELEKNPELKKKLEEAEKKGADLVIIIPSA [r9_1147_TrROS_Hall] | 3.39 ± 0.32 | 3 ± 0.2 | 3.12 ± 0.32 |
| SAGGSAGGSAGKIEIYPNDNQYYIKITVPRRNPNNGKWERQERTIPMPPDQAKELLKNGISAGGSAGGSAGG [r11_389_TrROS] | 0.0667 ± 0.14 | -0.439 ± 0.45 | -0.17 ± 0.3 |
| SAKEELYIIEIKVYVDGKEVKTITKVITVPEEKLEEKLKELLKKLAEELGLEIKKVEVKIKKLSLEELKSAG [r14_104_TrROS_Hall] | 2.79 ± 0.22 | 3.09 ± 0.14 | 2.83 ± 0.34 |
| SAGGSAGGSAGEWVTIPIKNPEKLKDLPGLPIKDVEPNGGKPTITFNGDDPERIKEALNDSAGGSAGGSAGG [r11_65_TrROS] | 0.804 ± 0.057 | 0.498 ± 0.063 | 0.682 ± 0.3 |
| SMKITATETPVGDKTTVTITVTIDPKEFPNKPPTEEFYKKIAEELMKKLGLKTYNISKTSSNTYTITIVDSA [r9_883_JUSTAS] | 2.42 ± 0.061 | 2.5 ± 0.025 | 2.5 ± 0.049 |
| SAGGPDIKIKWKIEVNPDNGMIWLTMEIEVPNPNGDFYKVRADIYIPIVNPDDGKFPIFIMLEVEPVPSAGG [r13_715_TrROS] | 3.36 ± 0.3 | 4.74 ± 0.25 | 4.76 ± 0.2 |
| SAGGKTIEVEIVVPPDMTPEEVAARLAAALPPGAKIRVEEVREVTGPDGRKYRIFKVTIYDEKTGEPLSAGG [r13_12_TrROS_Hall] | 3.61 ± 0.14 | 2.99 ± 0.072 | 3.12 ± 0.16 |
| MKPGETKTLTLTIVDEETGETYTVKVTVTYDEDTGVVTIKAEITYPDGRKFTVTARFNRETGELTEISIEPS [r1_144_TrROS_Hall] | 3.96 ± 0.087 | 4.44 ± 0.075 | 4.32 ± 0.098 |
| SAGGSAMKLTLKDKKGNTLFLEVEEKTSEDGTPYYEVKIYYPNTNKVEYAEVPVENLEEFAKKLADSAGGSA [r15_92_TrMRF] | 3.21 ± 0.09 | 3.31 ± 0.086 | 3.25 ± 0.18 |
| SAGGSAGGSAKPNKKFKFELVEVKEIEIYDKETNEKVYKISVAKVRLEDGSLLTFISIEEKSAGGSAGGSAG [r3_166_TrROS_Hall] | 2.34 ± 0.085 | 3.78 ± 0.059 | 3.19 ± 0.22 |
| SAGGGPVVLTDPVKTEKSPDGTTYTLTREVFYDPSRGEPLKVRFTLTKVTNYPDGVKTETLEEKEVALSAGG [r13_596_JUSTAS] | 0.816 ± 0.081 | 1.33 ± 0.19 | 1.09 ± 0.16 |
| SAGGSAMKKLTIELPDPDITPEEAEKRAREIAEKIAEGNYKVEEIKVEPVDPEKNVYRGTVIIKELSAGGSA [r15_96_JUSTAS] | 0.64 ± 0.13 | 0.365 ± 0.27 | 0.507 ± 0.34 |
| SAGGSAGGSAGGSMPENLVTITTETTVVKSPLANPVNESPVWEVEVISSPVTVVPPSLLSAGGSAGGSAGGS [r4_417_JUSTAS] | 1.25 ± 0.087 | 0.0877 ± 0.12 | 0.812 ± 0.1 |
| SAGGMPVPVTFPFAGADEVIAFATALEELVNAPVGLTLISPSGEEREVGDPDSIVDEDGFTVRVTVPASAGG [r13_620_TrMRF] | 1.38 ± 0.015 | -0.382 ± 0.16 | 0.921 ± 0.039 |
